Laboratory results as given in patent US20260116983A1.

Columns and labels:
[1] = target: human uPAR displayed on the surface of MDA-MB-231 cells (human) (UniProt Q03405); test: flow cytometry (FACS) on MDA-MB-231 cells; isotype control
[2] = target: human uPAR displayed on the surface of MDA-MB-231 cells (human) (UniProt Q03405); test: cell-based or functional assay

human uPAR displayed on the surface of MDA-MB-231 cells (human), sequence (Q03405 23-305): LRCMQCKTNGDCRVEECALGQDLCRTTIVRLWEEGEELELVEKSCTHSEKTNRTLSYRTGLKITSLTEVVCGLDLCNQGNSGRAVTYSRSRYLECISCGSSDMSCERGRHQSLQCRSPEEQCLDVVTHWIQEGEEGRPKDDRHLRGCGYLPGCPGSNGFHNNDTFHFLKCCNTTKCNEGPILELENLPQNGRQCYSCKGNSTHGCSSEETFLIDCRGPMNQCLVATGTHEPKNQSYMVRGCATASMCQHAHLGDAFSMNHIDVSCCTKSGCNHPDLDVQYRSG

With human IgG1 control (antibody) the Cellular recognition Max % [1] was 155%, the ADCC NK-92 Max % [2] was 0.468% and the ADCC PBMCs Max % [2] was 4.8%.
